Experimental data taken from the supplement of paper PMC9112550, “Optimization of the antimicrobial peptide Bac7 by deep mutational scanning” (BMC Biology, 2022).

Tested on: Escherichia coli TOP10
Experiment: shrunken log2 fold change of peptide-encoding DNA abundance (4.5 h post-induction vs induction); higher = less antimicrobial activity (less host growth inhibition)
Details: time post-induction: 4.5 h; library: site-saturation at positions 5, 18, 19, 20
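Also: peptides expressed intracellularly from a pBAD plasmid library in pooled LB shake-flask culture, induced with 0.3% L-arabinose, DNA abundance read by NGS, three biological replicates, DESeq2 with apeglm shrinkage.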

Sequence	shrunken log2 fold change
RRIRCRPPRLPRPRPRPGRNPRP	-0.0027
RRIRSRPPRLPRPRPRPWKKPRP	-0.162
RRIRKRPPRLPRPRPRPGFAPRP	0.718
RRIRMRPPRLPRPRPRPSHQPRP	-0.0291
RRIRVRPPRLPRPRPRPGENPRP	-0.0226
RRIRIRPPRLPRPRPRPKKKPRP	-0.442
RRIRNRPPRLPRPRPRPRVPPRP	-0.134
RRIRQRPPRLPRPRPRPKYRPRP	-0.0976
RRIRDRPPRLPRPRPRPLQKPRP	-0.0982
RRIRGRPPRLPRPRPRPVLHPRP	-0.0969
RRIRLRPPRLPRPRPRPHLQPRP	-0.0975
RRIRVRPPRLPRPRPRPLDEPRP	-0.0276
RRIRCRPPRLPRPRPRPGAMPRP	0.319
RRIRPRPPRLPRPRPRPTIEPRP	-0.0748
RRIRFRPPRLPRPRPRPWNDPRP	-0.243
RRIRGRPPRLPRPRPRPIYSPRP	-0.05
RRIRCRPPRLPRPRPRPCMLPRP	-0.758
RRIRRRPPRLPRPRPRPHDLPRP	0.22
RRIRVRPPRLPRPRPRPMTCPRP	-0.141
RRIRDRPPRLPRPRPRPLLIPRP	0.338
RRIRCRPPRLPRPRPRPRGIPRP	0.094
RRIRVRPPRLPRPRPRPVFKPRP	-0.196
RRIRQRPPRLPRPRPRPAMKPRP	-0.204
RRIRFRPPRLPRPRPRPRWMPRP	-0.149
RRIRKRPPRLPRPRPRPTYCPRP	0.135

Sequence	shrunken log2 fold change
RRIRHRPPRLPRPRPRPEGRPRP	-0.114
RRIRMRPPRLPRPRPRPVKSPRP	0.023
RRIRDRPPRLPRPRPRPSACPRP	0.294
RRIRGRPPRLPRPRPRPWKLPRP	0.0361
RRIRIRPPRLPRPRPRPRPCPRP	-0.0531
RRIRDRPPRLPRPRPRPSRNPRP	0.326
RRIRNRPPRLPRPRPRPVAGPRP	-0.124
RRIRFRPPRLPRPRPRPYVYPRP	-0.196
RRIRFRPPRLPRPRPRPQTDPRP	-0.21
RRIRIRPPRLPRPRPRPKCRPRP	-0.452
RRIRMRPPRLPRPRPRPGKKPRP	0.532
RRIRNRPPRLPRPRPRPPTIPRP	0.244
RRIRTRPPRLPRPRPRPSFFPRP	-0.256
RRIRSRPPRLPRPRPRPRMYPRP	-0.113
RRIRDRPPRLPRPRPRPCDLPRP	-0.0487
RRIRERPPRLPRPRPRPVIVPRP	-0.373
RRIRVRPPRLPRPRPRPNFDPRP	-0.0598
RRIRNRPPRLPRPRPRPCQSPRP	-0.212
RRIRSRPPRLPRPRPRPMTMPRP	-0.245
RRIRYRPPRLPRPRPRPQCYPRP	-0.0301
RRIRCRPPRLPRPRPRPITLPRP	-0.441
RRIRCRPPRLPRPRPRPTLQPRP	0.279
RRIRWRPPRLPRPRPRPFAAPRP	0.862
RRIRGRPPRLPRPRPRPDNWPRP	0.347
RRIRKRPPRLPRPRPRPMHQPRP	0.003

Sequence	shrunken log2 fold change
RRIRMRPPRLPRPRPRPIYNPRP	-0.347
RRIRLRPPRLPRPRPRPPAVPRP	0.341
RRIRERPPRLPRPRPRPAQWPRP	0.184
RRIRSRPPRLPRPRPRPEDEPRP	-0.0488
RRIRFRPPRLPRPRPRPTHHPRP	0.781
RRIRRRPPRLPRPRPRPSLFPRP	0.196
RRIRYRPPRLPRPRPRPHDVPRP	-0.379
RRIRSRPPRLPRPRPRPGTFPRP	0.0493
RRIRLRPPRLPRPRPRPYTAPRP	-0.863
RRIRMRPPRLPRPRPRPMPCPRP	-0.00548
RRIRSRPPRLPRPRPRPANHPRP	-0.606
RRIRKRPPRLPRPRPRPDGCPRP	0.14
RRIRPRPPRLPRPRPRPPFAPRP	0.647
RRIRQRPPRLPRPRPRPPQNPRP	0.663
RRIRKRPPRLPRPRPRPWKWPRP	-0.0168
RRIRMRPPRLPRPRPRPRAPPRP	1.18
RRIRVRPPRLPRPRPRPDLDPRP	0.156
RRIRPRPPRLPRPRPRPDYVPRP	-0.343
RRIRMRPPRLPRPRPRPKQHPRP	0.675
RRIRERPPRLPRPRPRPGHRPRP	-0.117
RRIRARPPRLPRPRPRPRRYPRP	0.255
RRIRKRPPRLPRPRPRPSVHPRP	-0.118
RRIRSRPPRLPRPRPRPLWFPRP	0.274
RRIRHRPPRLPRPRPRPVVNPRP	0.00319
RRIRIRPPRLPRPRPRPIDHPRP	-0.0137

Sequence	shrunken log2 fold change
RRIRWRPPRLPRPRPRPDGKPRP	0.00353
RRIRKRPPRLPRPRPRPAWCPRP	0.0965
RRIRPRPPRLPRPRPRPEYYPRP	-0.335
RRIRNRPPRLPRPRPRPHDMPRP	-0.137
RRIRLRPPRLPRPRPRPYYIPRP	-0.982
RRIRHRPPRLPRPRPRPAEKPRP	-0.0153
RRIRKRPPRLPRPRPRPGRWPRP	0.622
RRIRHRPPRLPRPRPRPICGPRP	0.00743
RRIRPRPPRLPRPRPRPLMEPRP	0.0162
RRIRQRPPRLPRPRPRPFYWPRP	-0.418
RRIRIRPPRLPRPRPRPATGPRP	-0.119
RRIRKRPPRLPRPRPRPRRDPRP	0.491
RRIRVRPPRLPRPRPRPCDKPRP	-0.323
RRIRWRPPRLPRPRPRPQERPRP	-0.0207
RRIRDRPPRLPRPRPRPTEVPRP	0.121
RRIRCRPPRLPRPRPRPEQSPRP	0.67
RRIRIRPPRLPRPRPRPTREPRP	0.255
RRIRRRPPRLPRPRPRPGHHPRP	-0.139
RRIRYRPPRLPRPRPRPGFMPRP	-0.279
RRIRYRPPRLPRPRPRPANPPRP	-0.422
RRIRPRPPRLPRPRPRPGMNPRP	-0.0398
RRIRNRPPRLPRPRPRPLKRPRP	-0.0368
RRIRMRPPRLPRPRPRPQFFPRP	-0.207
RRIRGRPPRLPRPRPRPQHYPRP	-0.167
RRIRNRPPRLPRPRPRPGMLPRP	-0.184

Sequence	shrunken log2 fold change
RRIRYRPPRLPRPRPRPWVQPRP	-0.544
RRIRERPPRLPRPRPRPEAVPRP	0.292
RRIRARPPRLPRPRPRPNVGPRP	0.251
RRIRCRPPRLPRPRPRPQHRPRP	-0.246
RRIRQRPPRLPRPRPRPTQQPRP	0.0196
RRIRWRPPRLPRPRPRPDEKPRP	0.0625
RRIRGRPPRLPRPRPRPRCEPRP	0.782
RRIRYRPPRLPRPRPRPKKWPRP	-0.113
RRIRWRPPRLPRPRPRPDPYPRP	-0.198
RRIRPRPPRLPRPRPRPDEEPRP	0.0245
RRIRQRPPRLPRPRPRPWVSPRP	-0.0689
RRIRVRPPRLPRPRPRPFVTPRP	-0.206
RRIRQRPPRLPRPRPRPDTNPRP	-0.413
RRIRIRPPRLPRPRPRPNMCPRP	0.0488
RRIRTRPPRLPRPRPRPFHNPRP	-0.31
RRIRERPPRLPRPRPRPHCCPRP	-0.0271
RRIRKRPPRLPRPRPRPHKLPRP	0.00078
RRIRPRPPRLPRPRPRPVQSPRP	0.131
RRIRHRPPRLPRPRPRPGVPPRP	0.191
RRIRHRPPRLPRPRPRPSYMPRP	-0.00144
RRIRQRPPRLPRPRPRPQLRPRP	-0.165
RRIRIRPPRLPRPRPRPGMTPRP	-0.164
RRIRERPPRLPRPRPRPNFPPRP	-0.169
RRIRTRPPRLPRPRPRPQDYPRP	0.0537
RRIRGRPPRLPRPRPRPNPAPRP	0.231
